Measurements from US12679878B2, “CRF2 receptor agonists and their use in therapy” (SANOFI, priority 2020, dated 2026).
Starred links: 1 amine or outer side, 2 acyl side, 3 side chain; linkers in the order of their positions; H or OH if unused. Non-standard residues stand in square brackets, D forms with d. Groups on a side chain read outwards from the residue. No end group written: not given here. *: point of attachment. C16 diacid = O=C(O)CCCCCCCCCCCCCCC(=O)*; γGlu = O=C(O)[C@H](CCC(=O)[*:2])N[*:1]; Aib = CC(C)(N)C(=O)O

Experiments:
Experiment in all cases: cell-based or functional assay
[1] = biological target: T1, CRF1R receptor (anti-target) (UniProt P34998 24-415, limits assumed)
T1 sequence (looked up): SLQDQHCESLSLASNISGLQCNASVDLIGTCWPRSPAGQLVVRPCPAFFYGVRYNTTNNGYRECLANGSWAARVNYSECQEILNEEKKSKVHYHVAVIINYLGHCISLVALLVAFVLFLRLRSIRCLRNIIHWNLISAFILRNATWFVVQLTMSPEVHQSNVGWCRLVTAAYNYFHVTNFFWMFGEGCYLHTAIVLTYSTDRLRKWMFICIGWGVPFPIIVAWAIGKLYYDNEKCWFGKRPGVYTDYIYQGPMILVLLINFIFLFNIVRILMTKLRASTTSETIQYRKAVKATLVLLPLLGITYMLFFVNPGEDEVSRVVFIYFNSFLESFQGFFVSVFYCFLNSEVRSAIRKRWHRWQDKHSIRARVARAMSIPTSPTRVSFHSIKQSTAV

[2] = biological target: human corticotropin-releasing factor 2α (CRF2α receptor) (human), Q13324
human corticotropin-releasing factor 2α (CRF2α receptor) (human), Q13324, sequence (Q13324 20-411): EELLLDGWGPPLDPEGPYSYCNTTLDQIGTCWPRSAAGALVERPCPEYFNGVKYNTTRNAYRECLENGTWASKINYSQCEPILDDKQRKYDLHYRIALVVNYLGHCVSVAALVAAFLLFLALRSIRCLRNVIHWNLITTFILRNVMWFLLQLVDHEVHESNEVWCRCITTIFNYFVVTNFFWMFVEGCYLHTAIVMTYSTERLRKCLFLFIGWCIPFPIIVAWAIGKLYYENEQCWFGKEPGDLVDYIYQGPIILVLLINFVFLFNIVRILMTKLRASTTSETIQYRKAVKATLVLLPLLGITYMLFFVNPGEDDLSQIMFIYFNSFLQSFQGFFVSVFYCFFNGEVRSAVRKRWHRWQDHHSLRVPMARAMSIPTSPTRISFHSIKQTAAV

[3] = biological target: human corticotropin-releasing factor 2α receptor (CRF2α receptor) (human), Q13324
human corticotropin-releasing factor 2α receptor (CRF2α receptor) (human), Q13324, sequence (Q13324 20-411): as above

Binder	CRF1/CRF2 ratio (of EC50) [1]	CRF1 EC50 (cAMP, HTRF) [1]	EC50 [nM], 0% HSA (cAMP, HTRF) [2]	CRF2 EC50 (cAMP, HTRF) [3]
IVLSLD[dV]PIKLK([γGlu-C16 diacid])QILLKQERQK[Aib]QRQQAEKNKQILAQV-NH2 (N-terminus assumed; SMILES CC[C@H](C)[C@H](N)C(=O)N[C@H](C(=O)N[C@@H](CC(C)C)C(=O)N[C@@H](CO)C(=O)N[C@@H](CC(C)C)C(=O)N[C@@H](CC(=O)O)C(=O)N[C@@H](C(=O)N1CCC[C@H]1C(=O)N[C@H](C(=O)N[C@@H](CCCCN)C(=O)N[C@@H](CC(C)C)C(=O)N[C@@H](CCCCNC(=O)CC[C@H](NC(=O)CCCCCCCCCCCCCCC(=O)O)C(=O)O)C(=O)N[C@@H](CCC(N)=O)C(=O)N[C@H](C(=O)N[C@@H](CC(C)C)C(=O)N[C@@H](CC(C)C)C(=O)N[C@@H](CCCCN)C(=O)N[C@@H](CCC(N)=O)C(=O)N[C@@H](CCC(=O)O)C(=O)N[C@@H](CCCNC(=N)N)C(=O)N[C@@H](CCC(N)=O)C(=O)N[C@@H](CCCCN)C(=O)NC(C)(C)C(=O)N[C@@H](CCC(N)=O)C(=O)N[C@@H](CCCNC(=N)N)C(=O)N[C@@H](CCC(N)=O)C(=O)N[C@@H](CCC(N)=O)C(=O)N[C@@H](C)C(=O)N[C@@H](CCC(=O)O)C(=O)N[C@@H](CCCCN)C(=O)N[C@@H](CC(N)=O)C(=O)N[C@@H](CCCCN)C(=O)N[C@@H](CCC(N)=O)C(=O)N[C@H](C(=O)N[C@@H](CC(C)C)C(=O)N[C@@H](C)C(=O)N[C@@H](CCC(N)=O)C(=O)N[C@H](C(N)=O)C(C)C)[C@@H](C)CC)[C@@H](C)CC)[C@@H](C)CC)C(C)C)C(C)C) [peptide of SEQ ID NO: 188]	134	69.1 nM	0.46 nM	0.46 nM
IVLSLD[dV]PIKLK([γGlu-C16 diacid])QILLKQARQK[Aib]QRAQAEKNKRILERV-NH2 (N-terminus assumed; SMILES CC[C@H](C)[C@H](N)C(=O)N[C@H](C(=O)N[C@@H](CC(C)C)C(=O)N[C@@H](CO)C(=O)N[C@@H](CC(C)C)C(=O)N[C@@H](CC(=O)O)C(=O)N[C@@H](C(=O)N1CCC[C@H]1C(=O)N[C@H](C(=O)N[C@@H](CCCCN)C(=O)N[C@@H](CC(C)C)C(=O)N[C@@H](CCCCNC(=O)CC[C@H](NC(=O)CCCCCCCCCCCCCCC(=O)O)C(=O)O)C(=O)N[C@@H](CCC(N)=O)C(=O)N[C@H](C(=O)N[C@@H](CC(C)C)C(=O)N[C@@H](CC(C)C)C(=O)N[C@@H](CCCCN)C(=O)N[C@@H](CCC(N)=O)C(=O)N[C@@H](C)C(=O)N[C@@H](CCCNC(=N)N)C(=O)N[C@@H](CCC(N)=O)C(=O)N[C@@H](CCCCN)C(=O)NC(C)(C)C(=O)N[C@@H](CCC(N)=O)C(=O)N[C@@H](CCCNC(=N)N)C(=O)N[C@@H](C)C(=O)N[C@@H](CCC(N)=O)C(=O)N[C@@H](C)C(=O)N[C@@H](CCC(=O)O)C(=O)N[C@@H](CCCCN)C(=O)N[C@@H](CC(N)=O)C(=O)N[C@@H](CCCCN)C(=O)N[C@@H](CCCNC(=N)N)C(=O)N[C@H](C(=O)N[C@@H](CC(C)C)C(=O)N[C@@H](CCC(=O)O)C(=O)N[C@@H](CCCNC(=N)N)C(=O)N[C@H](C(N)=O)C(C)C)[C@@H](C)CC)[C@@H](C)CC)[C@@H](C)CC)C(C)C)C(C)C) [peptide of SEQ ID NO: 197]	–	–	2.27 nM	2.27 nM
IVLSLD[dV]PIKLK([γGlu-C16 diacid])QILLKQERQKKQRQQAEKNKQILAQV-NH2 (N-terminus assumed; SMILES CC[C@H](C)[C@H](N)C(=O)N[C@H](C(=O)N[C@@H](CC(C)C)C(=O)N[C@@H](CO)C(=O)N[C@@H](CC(C)C)C(=O)N[C@@H](CC(=O)O)C(=O)N[C@@H](C(=O)N1CCC[C@H]1C(=O)N[C@H](C(=O)N[C@@H](CCCCN)C(=O)N[C@@H](CC(C)C)C(=O)N[C@@H](CCCCNC(=O)CC[C@H](NC(=O)CCCCCCCCCCCCCCC(=O)O)C(=O)O)C(=O)N[C@@H](CCC(N)=O)C(=O)N[C@H](C(=O)N[C@@H](CC(C)C)C(=O)N[C@@H](CC(C)C)C(=O)N[C@@H](CCCCN)C(=O)N[C@@H](CCC(N)=O)C(=O)N[C@@H](CCC(=O)O)C(=O)N[C@@H](CCCNC(=N)N)C(=O)N[C@@H](CCC(N)=O)C(=O)N[C@@H](CCCCN)C(=O)N[C@@H](CCCCN)C(=O)N[C@@H](CCC(N)=O)C(=O)N[C@@H](CCCNC(=N)N)C(=O)N[C@@H](CCC(N)=O)C(=O)N[C@@H](CCC(N)=O)C(=O)N[C@@H](C)C(=O)N[C@@H](CCC(=O)O)C(=O)N[C@@H](CCCCN)C(=O)N[C@@H](CC(N)=O)C(=O)N[C@@H](CCCCN)C(=O)N[C@@H](CCC(N)=O)C(=O)N[C@H](C(=O)N[C@@H](CC(C)C)C(=O)N[C@@H](C)C(=O)N[C@@H](CCC(N)=O)C(=O)N[C@H](C(N)=O)C(C)C)[C@@H](C)CC)[C@@H](C)CC)[C@@H](C)CC)C(C)C)C(C)C) [peptide of SEQ ID NO: 192]	68	56.6 nM	0.83 nM	0.83 nM
IVLSLD[dV]PIGLK([γGlu-C16 diacid])QILLKQERQKK[Aib]REQAEKNKRILERV-NH2 (N-terminus assumed; SMILES CC[C@H](C)[C@H](N)C(=O)N[C@H](C(=O)N[C@@H](CC(C)C)C(=O)N[C@@H](CO)C(=O)N[C@@H](CC(C)C)C(=O)N[C@@H](CC(=O)O)C(=O)N[C@@H](C(=O)N1CCC[C@H]1C(=O)N[C@H](C(=O)NCC(=O)N[C@@H](CC(C)C)C(=O)N[C@@H](CCCCNC(=O)CC[C@H](NC(=O)CCCCCCCCCCCCCCC(=O)O)C(=O)O)C(=O)N[C@@H](CCC(N)=O)C(=O)N[C@H](C(=O)N[C@@H](CC(C)C)C(=O)N[C@@H](CC(C)C)C(=O)N[C@@H](CCCCN)C(=O)N[C@@H](CCC(N)=O)C(=O)N[C@@H](CCC(=O)O)C(=O)N[C@@H](CCCNC(=N)N)C(=O)N[C@@H](CCC(N)=O)C(=O)N[C@@H](CCCCN)C(=O)N[C@@H](CCCCN)C(=O)NC(C)(C)C(=O)N[C@@H](CCCNC(=N)N)C(=O)N[C@@H](CCC(=O)O)C(=O)N[C@@H](CCC(N)=O)C(=O)N[C@@H](C)C(=O)N[C@@H](CCC(=O)O)C(=O)N[C@@H](CCCCN)C(=O)N[C@@H](CC(N)=O)C(=O)N[C@@H](CCCCN)C(=O)N[C@@H](CCCNC(=N)N)C(=O)N[C@H](C(=O)N[C@@H](CC(C)C)C(=O)N[C@@H](CCC(=O)O)C(=O)N[C@@H](CCCNC(=N)N)C(=O)N[C@H](C(N)=O)C(C)C)[C@@H](C)CC)[C@@H](C)CC)[C@@H](C)CC)C(C)C)C(C)C) [peptide of SEQ ID NO: 196]	–	–	1.08 nM	1.08 nM
